Source: patent publication US8354508B2

Target: T1, Boc-QAR-AMC
T1 sequence (peptide, N-terminal Boc; C-terminal AMC): QAR

fluorescence of cleaved Boc-QAR-AMC (370 nm excitation, 450 nm emission), cell-based protease assay: 3 times
Substance: human Pro115 on cells (enzyme)
